Experimental data taken from article PMC10997057.

Molecular target: murine splenic AA amyloid extract (mouse (endogenous in spleen)) (UniProt P05367)
Experiment: co-sedimentation; pulldown with murine splenic AA amyloid extract in the presence of 20 μg non-radiolabeled peptide (competition)

murine splenic AA amyloid extract (mouse (endogenous in spleen)), sequence (P05367 20-122): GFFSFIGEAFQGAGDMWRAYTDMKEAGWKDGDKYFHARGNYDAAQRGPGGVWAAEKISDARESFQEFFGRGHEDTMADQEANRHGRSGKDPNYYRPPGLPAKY

% of ^99mTc-p5+14 bound in the presence of 20 μg non-radiolabeled peptide: 4%
Binder: GGGYSKAQKAQAKQAKQAQKAQKAQAKQAKQAQKAQKAQAKQAKQ [non-radiolabeled peptide p5+14]
